From a protein production outcome set (Wang et al. 2014)

Assay: label from the status in PepcDB records

With “MDYSIADCLAANQYTTACCIVQSWTRGEVLLSSYQRVALFIFFDSIEKDLVTHIRSLAGLVTTGFLSAQERDKAAQRAEKSDEPGTVAKDDFELLYQLDLGDKIAIAQRLKQHFGDAFRKHFSAKAASLQAAVPVRNSVMHGRPLTVEEHATAFALANDLVKSNGFWPVLHKALVDYNTDPEAITRRAVSFLEHPSEGGIFHNLPLPDYDDTGFVPRPQLEQELKKKILSRHPVVTVLGDGGNGKTALTVQALYSLVNSGDHDFDAIVWVSAKSSKLTVGEIQRIEHAITTSMGLFEEVVGIFEEDKSNPMSRVRQLLENNKILLAIDNLETVLDDTIRDFVSDIPGQSKVVLTSRIPVGGDLTVEVKPLTDNEGEIYLRALIKSYSIKTLSSLRQDELRYFASRLERRPLLLKWFCMGVIAGLPASKIVSNPEMALRFCLENVFDALSPDATMTLSLMSILPRAVSLGVLHYVSSTDIRKLEAGVAELLKFSILETENQSGYELNYRIKPFARAYVARILRLTAEAQEAVIRKFRGLSFAYQAERGAEGQEKYNFRNFTVRSISEALAAGKLREAVKLAYNDEFEAANAIIDTLKVSNHDYFEVFRTDAFIRFRQHDFAGATDAYRSALELSPETPQLYFFFGGFLLRGYGDCPAAIAQFEEALKRDPESTDVKRELARAKMFDYDFEGAMKILSLERTKPLSNMRTQLIFADLQTQNFQRMITHKSAVGIDADLEAPCSAFADFLVTLDPRIVDSKMTEHLRKARSSIVQALHTRSVRAGARVVALLDKLIGELEASRDDTTDHCASASGLLGTLKEKGRKPNFGFLVDRSNREYFVARAMVSDLVWEGLEGGKIASFEVELDNQGRPRATNVYLI” the protein production was “failed”.
With “DLSREADQALQEIVRQTQETAQMCLLNGRKYTVALMKEGERHFRISSNIGENAPIPWTASGRLLLGHLSDGQIVDLIDERDFVLPDGERLPLETFLKQIRQATEDGFFSFDSVADTFTHCFAAPVRDEHGVCICTLCIVAPRADAQRNYQQYRRVLIDSANRLARRIN” the protein production was “failed”.
For “MDVFSEILNGIGRLLLQPALYVGIILVIIAGFNRVKWERKSFSISIYSPWLELKNFFGVSLLFGLVLSIITTLIGFSVMIEWIAIFNAVACFLLIVGMFRLSSTAFTIGITSLIFYFCYYFDVNLSPFTNLEFTYDAIFIDNFMISMTFLLAILLFVEAFLIQYTSAKNPSPSLRKSKRGKLVGSFQLRKLWFVPLVVFIPGDVFTKIFEWWPVFTIGSESYSLIILPLFIGFQQQVQAQLPEEASKKIAVQVTTLATIIAVAGLIGIVMPVLTLFAFMFAVIGRFWISYRHYRSEQLLPKKFGPQPDGLVVLGARESTPSTRLNLKAGEKITEVNGQKVHNREELYEALNLNRAFCKLKVIDNAGEPRFEQTALYENESFELGLLLVEPR”, the protein production was “failed”.
For “MVMNKLILFGSIFFKCWQQNRISISAGYLTYNTMLALVPLVMVVFSVFTFFPIFTEATELLKTFVYDNFAPNAGNVVEEYVELFVSNSQKMGLVSMLGLFIVAVMLISSIDQSLNDIWHNTRKRSLLLSFLLYILILIFAPLLAGASIAITTYIMSFEVFSENGIFSFSHYLLEYAPFLLVWLLFTLVYWIVPNTTVAFRHATIGALFAASFFTLGKQAFIWYVVTFPSYQAIYGTLAVLPIMIVWIHLSWQVVLLGGQFAAVLKEINMLKENER”, the protein production was “not failed”.
With “MITRTVKAQLLAFATVTAVGVSYVGAEYTGLVDDVLGRGYTVRADFADSGGIFPGAEVTYRGVPVGRVGALRLTGSDGVSVALDIKDGVPRIPADTLAVVANRSAVGEQYVDLQPRTSHGPYLLDGSAIPRGSTRVPLPTTDLVLSLDRLVDSVGKDDLRVTVDELGKAFSGTGPNLSRLVDSGNALVESASESLPQTISLIEDSRKVLKTQADQGSSIKSFAHDLAALSAQLKSSDGDLRKLIGNATPAAQQVNSLLKSTGPRLSVLLANLISGGQVTLARLPGVEQSLVTFPALVAGSYTVVPGDGTTHFGLVVNADDPPPCTQGYGTTRRDPSDTSTREANTDARCTAPRGNKTSVRGAQNAPGASTTSGGTNQAAYVTPYDPETGTATGPDGRPVEIGSTGGQQAVFGRESWQWLLVGPMA” the protein production was “failed”.
In the case of “MPEILINYKTNREDYKRQSKYCNICMRRYKSVKKNVIILALMIVFVFVFGTVAFHLIEGWNLFDSFFFTLITVSTVGYSIPENLSQAGKVIASILISAGVTIVLYGFTSVTSMIVEGHIGEYFKSRRMRKMIDRLKDHFIVVGAGRTGRHTTLEIMKAKKPFVVIDQSEEAIARLKDFLGEEFPYVVGDATEEEILMKAGVERARSLVVTLPDDAKSTFVVLTAKSLNPNLEIVSRVSDMKALSKLVYAGADKVIATSELAGVRLAQMALNPTTISFLDILSFGEESFRIEEVVIPPESPVANKTLGEINLAKRAGTIVIAIRRGGEVIFNPTGDTKILPEDRLMVVGKSDHFEKLHRLIEEG”, the protein production is reported as “failed”.
In the case of “PQAMIIDVVADVVCPWCYLGWRRLKSAIALRPDLKAQLIWRPYQLDPTLPEDGVDRKAYMAQKFKDPEKLKAVHTALVEGGAEEGIVFNFEAIALSPNTNAAHRLIRWALTAGVQDHVVEALFKAYFEQGLDIGDPIVLGDIAEAAGMERLVVLQLLSEGADKEAVAREHAMAVQGGVTGVPFAIFAGKVAVVGAESPERIAQAIDQALAA”, the protein production is reported as “failed”.
For “MREPYYKKLLGIKNYLIRKNYPEELEILIPKYVEENKELRGCIDCLSCLSVCPAREVSDYPGPTFMRQLARFAFDKRDEDGREITAYFENIYNCTTCAKCVEVCPKEIDIVHRAIEKLRALAFSKGYLEHHHHHH”, the protein production was “failed”.
For “MARSFSLAKNPLFWQVAIAGIILDQLSKLWVSQAMDPVGTTWPLWSGVFHFTYVLNTGAAFSAFRGGAGWLKWLSLAVSVGLIIFAGKVPLRKLEQLGYGCILAGAVGNGIDRFLFGHVIDFLDFRLINFPIFNLADVSINIGIAALLWASFFPVSSRKVD”, the protein production was “failed”.
With “MSRSDNGGEDKGLRITRREFLAAAGAGAAAFIVGAVVGSTAFPREKEVVKPGPTQTVTATATETATVTETQTQVQLVEKKYPKVKIANVSELREGQPVFKEYIGHRIVVIKLGEEAVNGVGPDKDIVAFSMLCTHMGGFLIFDGNTKTLICPLHFSQFDPSRGGQPVVGHATEYLPQVILEYDEASGDIFAVGFTALVYGRYDNLQGVKA” the protein production was “failed”.
In the case of “MYIPKYFKVTNAEEIWNFVQENSFGTVVTTEQGKPIATHLPLGFNKKDDHYYITGHFAYGNPQWRTFEACEDVLVMFQGPHAYISSSWYSRENVPTWNYQAVHMYGKASMLEKDELAEELTIMLEQKTPTQAFSVLWDKLSPKLLESELKGIVGFKIKVEDIQAAYKLSQN”, the protein production is reported as “failed”.
With “MTTQMPIASPRTEFYERAFGGFHDQAVAEVRKETYGEDLGQNDWSTVDEMRQFSQWLELSPQSHLLDVCSGSGGPALFLARNSGCRVTGVDLHPDALQTGRQLAQALELHDRSQFVECDVRQRMPFPDGTFDALWCIDSVIHIPDRLALLREWCRLLKPGGRFLYTDPTLVTGMVSKEEILLRGTPGYFLYTPIGLNERLIEQAGLRLDMQADLTHSITELSERWHAAREKRCAVLTATEGEEAFARMQSFLTATHRVSVEGRLSRWVFVGVRP” the protein production was “failed”.
In the case of “DITERKQAESALQESEARFQAFMNNSPSASWITDDHGRMLYLSQTYVRTFQLPFDKVEDVTGKTVFELYTPEVAQPFLDNIHRVAQTQQILETIEKAPRLDGTLGDFLVYKFPLPATT”, the protein production is reported as “failed”.
For “MGKGCAASLWPTAIGPRMPRPLSLLPRPAGLMLRLVGSLVLTLWLVWLLADRLALLAPGEVIAALSGLPVWRLAAALLATAVSFWALGRYDGVAHRHFRTGLAARQARLCGMAAIGFSQFVGCGVLSGSFARWRMIGDLTPALALRLTTFVAITFLLALAFWASALCLIAPPLPGLRQTGVAGLALLLPITLVLFLLPRLRLGRFTLRLPSLRALGAILGWAALDLAAAAAVLWVLLPALSWTDLPLLMSAYVLALAAGLLSGAPGGLGAFELTLLALLPAIPGAELMAAVLAYRLIYVALPALAAVPLLLSPPDLRLGRQHRLPRRIHHHPPARPRAETAVVTQSRGYVLSGGFADMAVVETDQSLIMLFDPVCGGRHPDLYLLARRAAQRNLFALVYKCSARVAVSARRAGWRVRHVSDEATLVPADFTIAGSHRRQLRRKLRQAERAGLTVRRASTLPLTQMAAVDRLWQEANGRAWGLTMGRFAPDYLARQAVFLAWRGARLEGFVSFHRSRDEWCLDLMRTHPDAPEGTMHALVATALAATAAARVPRLSLAAVPAGRLGHRFDGLRQFKDSFAPRWQPLYMAAPGWTAIALAAADLARHVQAPPPLAAPDAQPAHDLDEEIEFASLTGT”, the protein production was “failed”.
In the case of “MKFNEFLNNLSNYEPGKDIEVIAKEYGVKEVIKLASNENPFGTPPKAIECLRQNANKAHLYPDDSMIELKSTLAQKYKVQNENIIIGAGSDQVIEFAIHSKLNSKNAFLQAGVTFAMYEIYAKQCGAKCYKTQSITHNLDEFKKLYETHKDEIKLIFLCLPNNPLGECLDASEATEFIKGVNEDCLVVIDAAYNEFASFKDSKKHLEPCELIKEFDNVLYLGTFSKLYGLGGLRIGYGIANANIISAFYKLRAPFNVSNLALKAAVAAMDDDEFTEKTLENNFSQMELYKEFAKKHNIKIIDSYTNFITYFFDEKNSTDLSEKLLKKGIIIRNLKSYGLNAIRITIGTSYENEKFFTEFDKILR”, the protein production is reported as “not failed”.
In the case of “MNFFTSPFSGIPLDQQVTNPNIIVGKHSYYSGYYHGHSFDDCVRYLHPERDDVDKLVIGSFCSIGSGAVFMMAGNQGHRSDWISTFPFFYQDNDNFADARDGFTRSGDTIIGHDVWIGTEAMIMPGVKIGHGAIIASRSVVTKDVAPYEVVGSNPAKHIKFRFSDVEIAMLLEMAWWNWPESWLKESMQSLCSSDIEGLYLNWQSKART”, the protein production is reported as “not failed”.
In the case of “MTPLVSRLSRLWAIMRKPRAAVGSGHRKQAASQEGRQKHAKNNSQAKPSACDGLARQPEEVVLQASVSSYHLFRDVAEVTAFRGSLLSWYDQEKRDLPWRRRAEDEMDLDRRAYAVWVSEVMLQQTQVATVINYYTGWMQKWPTLQDLASASLEEVNQLWAGLGYYSRGRRLQEGARKVVEELGGHMPRTAETLQQLLPGVGRYTAGAIASIAFGQATGVVDGNVARVLCRVRAIGADPSSTLVSQQLWGLAQQLVDPARPGDFNQAAMELGATVCTPQRPLCSQCPVESLCRARQRVEQEQLLASGSLSGSPDVEECAPNTGQCHLCLPPSEPWDQTLGVVNFPRKASRKPPREESSATCVLEQPGALGAQILLVQRPNSGLLAGLWEFPSVTWEPSEQLQRKALLQELQRWAGPLPATHLRHLGEVVHTFSHIKLTYQVYGLALEGQTPVTTVPPGARWLTQEEFHTAAVSTAMKKVFRVYQGQQPGTCMGSKRSQVSSPCSRKKPRMGQQVLDNFFRSHISTDAHSLNSAAQ”, the protein production is reported as “failed”.
For “MDGKRVWLSDDELTRFIEQAETPHQRLAFLLAGRVGLRRSEIIEVCPQDLVDGPTGDHIRVWESYAKRDKYREPPVPQEVVTIAETLAYQQDDDEPLLDVAGSTVYRWVRRAADELEEETGDRGWQYLDVHDLRRTWGTYLLEQGVIPSVVMSFGGWEDWDTFRKHYLGEFSLEHHHHHH”, the protein production was “not failed”.
In the case of “MEHPLIRIVILAVLAYVGYALLCFLVQRTIIYPGRSLSVAGQPPDLPDIHPLWLTTPYGHVESWFLPATGSVAGDRRPVVLFFHGNGEVIDVLPDQAEGFRRMGMHVMLVEYPGYGRSGGSPSEEGITAAAVAAYDELVRRSDTDSGRMIAFGRSLGCGAACALSLRRPLAALILQSPFTSTRPFARQMLLPGFLARDVFDNRKALESYGGAVLILHGTEDDIIPVGHGRELARTVRRGCLIELRCGHNDCPPDWLEFWRIIEGFLEQEGVSGRK”, the protein production is reported as “failed”.
In the case of “MDNDKYLKGTTTVGVVCTDGIVLASEQRATMGHFIASKTAKKVYQIDDLVGMTTAGSVGDAQQLVRLVSVESQLYKMRRNESMTIKGIATLMSNFLNANRYYPMMVQLLIGGVDKNGPAIYSLDPMGGSIEETRISATGSGSPMAYGVLEDQYREDIAVKEGLDLAIRAIHNATKRDSASGENIDVVVITKEAFKRLDPEEVKSRRALLN”, the protein production is reported as “failed”.
